The record followed here is US20240400680A1 (SHANGHAI CELGEN BIO PHARMACEUTICAL, published 2024).

Test [1] has as its target T1, full-length human TIGIT on the cell membrane (CHO-K-TIGIT cells; TIGIT-Jurkat cells) (human) (UniProt Q495A1).
T1 sequence (looked up): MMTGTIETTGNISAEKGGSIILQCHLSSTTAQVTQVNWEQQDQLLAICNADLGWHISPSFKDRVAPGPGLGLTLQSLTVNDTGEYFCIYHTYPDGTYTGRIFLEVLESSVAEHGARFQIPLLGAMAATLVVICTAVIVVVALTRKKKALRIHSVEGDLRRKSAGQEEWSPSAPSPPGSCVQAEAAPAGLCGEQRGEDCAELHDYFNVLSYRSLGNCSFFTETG
The experiment in a line: cell-based or functional assay.

In test [2] the target is recombinant human TIGIT (Human TIGIT His, Sino Biological, 10917-H08H) (human) (UniProt Q495A1). The experiment in a line: BLI (GATOR), antibody on human antibody capture probe, TIGIT-His 40-10 nM.
The target in test [3] is T2, recombinant human TIGIT (Human TIGIT His, Sino Biological, 10917-H08H) (human, UniProt Q495A1 22-138).
T2 construct: range 1-138; Bought protein; also called recombinant human TIGIT antigen; recombinant human TIGIT protein; not shown: C-terminal histidine tag
T2 sequence (looked up): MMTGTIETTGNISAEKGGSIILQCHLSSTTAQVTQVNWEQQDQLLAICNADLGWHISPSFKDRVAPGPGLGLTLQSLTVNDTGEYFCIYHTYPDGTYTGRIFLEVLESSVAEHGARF
In words: ELISA on recombinant human TIGIT protein. For orientation: An ELISA detects its analyte on a solid surface through an enzyme-linked reagent.

The target in test [4] is T3, full-length human TIGIT on the cell membrane (CHO-K-TIGIT cells; TIGIT-Jurkat cells) (human, UniProt Q495A1 22-244).
T3 construct: whole, on cells; Also used here for TIGIT on human PBMCs in the IFN-gamma assay; also called CHO-TIGIT
T3 sequence (looked up): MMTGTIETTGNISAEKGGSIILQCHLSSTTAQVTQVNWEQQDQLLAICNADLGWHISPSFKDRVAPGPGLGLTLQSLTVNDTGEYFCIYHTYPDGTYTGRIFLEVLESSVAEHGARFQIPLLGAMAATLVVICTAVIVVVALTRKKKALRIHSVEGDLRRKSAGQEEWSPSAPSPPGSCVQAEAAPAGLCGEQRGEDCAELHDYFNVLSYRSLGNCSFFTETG
In words: flow cytometry on TIGIT-Jurkat cells. How it is done: The binding activity of the anti-TIGIT antibody-IL2 fusion proteins to TIGIT on the cell membrane was tested using flow cytometry. A Jurkat cell line stably expressing human TIGIT was first established. The full-length human TIGIT gene (Sinobio) was amplified by PCR and cloned into the mammalian cell expression vector pcDNA3.1 (Invitrogen), using Not I and Xba I as cloning enzymes. The TIGIT expression plasmid was transfected into Jurkat cells to construct a stable Jurkat cell line expressing TIGIT (TIGIT-Jurkat).
The flow cytometry study method for the binding of TIGIT antibody-IL2 fusion proteins to cell membrane-bound TIGIT is summarized as follows: FACS buffer (1×PBS+0.5% BSA solution) was prepared. The required number of TIGIT-Jurkat cells, about 1×10⁵ to 5×10⁵ cells per sample, was taken and incubated with HC1-IL2 wt/LC1 (ART-Ig) and HC1-IL2mut/LC1 (ART-Ig) diluted to a certain ratio in FACS buffer, approximately 100 μL, at 4° C. for 30 minutes. After washing the cells once with FACS buffer, they were resuspended in FITC-conjugated anti-human IgG (Abcam: 6854) diluted in FACS buffer and incubated at 4° C. for 30 minutes. Finally, after washing the cells with FACS buffer, they were resuspended in 200 μL of FACS buffer for analysis. The parent TIGIT antibody P03479 was used as a control.

With Tiragolumab (antibody), in test [1], the IFNγ release from PHA-activated PBMCs, increase worked out at 16%.

B1: human-mouse chimeric TIGIT monoclonal antibody 7103-07 (hFc) (antibody, from a related filing, V domains shown)
VH: EVQVVESGGGLVKPGGTLKLSCAASGFTFSTYAMSWVRQSPEQRLEWVAEISSGGSHTFYSDTVTGRFTISRDNAQNTLYLEMNSLRSEDTAMYYCARKTLDYYALDYWGQGTSVTVSS
VL: DVQITQSPSYLAASPGETITINCRASKSISKYLAWYQEKPGKTNKLLIYSGSRLQSGIPSKFSGSGYGTDFTLTISSLEPEDFAMYYCQQHNEYPWTFGGGTKVEIK
What is called Kd is the concentration at which binding is half-saturated. The koff is the rate constant with which the complex falls apart. What is called kon is the second-order rate constant of association. In the case of B1, in test [2], the Kd amounted to 2.96 nM, the dissociation rate constant (koff) amounted to 0.00169 s⁻¹ and the on-rate constant (kon) amounted to 573000 M⁻¹ s⁻¹.

B2: humanized anti-TIGIT monoclonal antibody P03489 (antibody, V domains shown)
VH: QVQLVQSGAEVKKPGASVKVSCKASGYTFISYNIYWVRQAPGQGLEWMGGVNPSNGNTNFNENFQGRVTMTVDTSISTAYMELSRLRSDDTAVYYCTRGNYYGYEFAYWGQGTTVTVSS
VL: DIQMTQSPSSMSASVGDRVTITCKASQHVSTAVAWYQQKPGKAPKLLIYSPSYRYTGVPSRFSGSGSGTDFTFTISSVQPEDIATYYCQQHYSTPWTFGGGTKLEIK
notes: Only variable domains are tied to P03489 itself; HC2/LC2 of the fusion proteins derive from it
What is called EC50 is the concentration that produces a half-maximal response. For the molecule B2, the half-maximal effective concentration (EC50) in test [3] turned out to be 0.5 nM.

B3: humanized anti-TIGIT monoclonal antibody P03479 (antibody, V domains shown)
VH: EVQVVESGGGLVKPGGSLRLSCAASGFTFSTYAMSWVRQAPGKGLEWVAEISSGGSHTFYADTVKGRFTISRDNAKNTLYLQMNSLRAEDTAVYYCARKTLDYYALDYWGQGTTVTVSS
VL: DVQITQSPSYLSASVGDRVTINCRASKSISKYLAWYQQKPGKAPKLLIYSGSRLQSGIPSRFSGSGYGTDFTLTISSLQPEDFATYYCQQHNEYPWTFGGGTKLEIK
notes: Only variable domains are tied to P03479 itself; HC1/LC1 of the fusion proteins derive from it
Take B3: the 50% effective concentration (EC50) in test [4] came to 0.26 µg/mL.

B4: human-mouse chimeric TIGIT monoclonal antibody 7103-01 (hFc) (antibody, from a related filing, V domains shown)
VH: QVQLQQPGAELVKPGASVKLSCKASGYTFISYNIYWVKQRPGQGLEWIGGVNPSNGNTNFNENFKSKATLTVDKSSSTAYMQLSSLTSDDSAVYFCTRGNYYGYEFAYWGQGTLVTVSA
VL: DIVMTQSHKFMSTSVGDRVSITCKASQHVSTAVAWYQQKPGQSPKLLIYSPSYRYTGVPDRFTGSGSGTDFTFTISSVQAEDLAVYYCQQHYSTPWTFGGGTKLEIK
For B4, in test [2], the Kd amounted to 1.73 nM, the koff turned out to be 0.000951 s⁻¹ and the on-rate constant (kon) turned out to be 549000 M⁻¹ s⁻¹.
